{"source": "patent US20110191903A1", "about": "“ENGINEERING PLANT RESISTANCE TO DISEASES CAUSED BY PATHOGENS” (Pioneer Hi-Bred International, Inc., priority 2009, published 2011)", "proteins": {"B1": {"name": "Ceriporiopsis subvermispora oxalate oxidase OXOX-C variant ALT6 (3-21), L23P/I60E/T63Q/I99V/L177M/L196I/F259Y/I278V/F339Y/F387Y/F396Y relative to OXOX-C-ALT1 … (protein)", "chain": "RPTENGPQIVIANNAGTYLPVPRGSGTKSSSAADATQTVPFASDDPNPRLWDIDTKNLEKVQPERGQLGAKILGPDNLPIDLQNADTLAPPTTDSGSVPNPKWPFALSHNTLYSGGWVRIQNDEVMPIAKAMAGVNMRLEAGAIRELHWHNTPEWAYILKGTTQITAVDQNGRNYMANVGPGDLWYFPEGMPHSIQGTDANNEGSEFLLIFPDGTFDSSNQFMITDWLAHTPKDVIAKNFGVDISEFDRLPSHDLYIYPGVAPPLDAKAPEDPQGTVPLPYSFEFSKVKPTQYAGGTVKIADTRTFPIAKTISVAEVTVEPGAMRELHWHPTEDEWTYFIEGQARVTIFAGQSNAQTYDYQGGDIAYIPTAWGHYVENSGNTQLRYLEIFNSPLYEDVSLAQWIANTPPAIVKATLQLSDEVINTLNKQKAFVVG"}, "B2": {"name": "Ceriporiopsis subvermispora oxalate oxidase OXOX-C variant ALT7 (3-25), L23P/I54M/I60E/I99V/W118Y/P154A/I159V/L177M/D218N/F259Y/I278V/F339Y/Y359F/G363A/F396Y … (protein)", "chain": "B1 chain with I53M, Q62T, W117Y, P153A, I158V, I195L, D217N, Y358F, G362A, Y386F"}, "B3": {"name": "Ceriporiopsis subvermispora oxalate oxidase OXOX-C variant FG23 (3-FG23), … (protein)", "chain": "RPTENGPQIVIANNAGTYLPVLRGSGTKSSSAADATQTVPFASDDPNPRLWNIDTQDLSVVAPERGPLGAKILGPDNLPIDLQNADTLAPPTTDSGSVPNPKWPFALSHNTLYSGGWVRIQNNEVLPIAKAMAGVNMRLEAGAIRELHWHNTPEWAYILKGTTQITAVDQNGRNYLANVSPGDLWYFPEGIPHSLQGTDANNEGSEFLLIFPDGTFDASNQFMITDWLAHTPKDVIAKNFGVDISEFDRLPSHDLYIFPGVAPPLDAKAPEDPQGTVPLPYSFEFSKVKPTQYAGGTVKIADTRTFPIAKTISVAEVTVEPGAMRELHWHPTEDEWTFFIEGQARVTIFAGQSNAQTYDYQGGDIAYIPTAYGHYVENSGNTQLRFLEIFNSPLFEDVSLAQWIANTPPAIVKATLQLSDEVIDSLNKQKASVVG"}, "B4": {"name": "Ceriporiopsis subvermispora oxalate oxidase OXOX-C variant FG10 (3-FG10), D53N/I60E/E65Q/K72E/S115T/Q171E/R174K/M192V/I278V/Y282F/Y359F/V399I/G436A plus S437, … (protein)", "chain": "RPTENGPQIVIANNAGTYLPVLRGSGTKSSSAADATQTVPFASDDPNPRLWNIDTKNLEKVTPQRGQLGAEILGPDNLPIDLQNADTLAPPTTDSGSIPNPKWPFALSHNTLYTGGWVRIQNDEVMPIAKAMAGVNMRLEAGAIRELHWHNTPEWAYILKGTTQITAVDENGKNYLANVGPGDLWYFPEGVPHSLQGTDANNEGSEFLLIFPDGTFDSSNQFMITDWLAHTPKDVIAKNFGVDISEFDRLPSHDLYIFPGVAPPLDAKAPEDPQGTVPLPFSFEFSKVKPTQYAGGTVKIADTRTFPIAKTISVAEVTVEPGAMRELHWHPTEDEWTFFIEGQARVTIFAGQSNAQTFDYQGGDIAYIPTAWGHYVENSGNTQLRFLEIFNSPLFEDISLAQWIANTPPAIVKATLQLSDEVINTLNKQKAFVVASD", "notes": "C-terminal 6xHis, pET32, E. coli, nickel purified"}, "B5": {"name": "Ceriporiopsis subvermispora oxalate oxidase OXOX-C variant ALT1 (WT-Q7), glycosylation minus, T60I/T384Q/S430Q relative to SEQ ID NO: 37, SEQ ID NO: 23 … (protein)", "chain": "RPTENGPQIVIANNAGTYLPVLRGSGTKSSSAADATQTVPFASDDPNPRLWDIDTKNLIKVTPERGQLGAKILGPDNLPIDLQNADTLAPPTTDSGSIPNPKWPFALSHNTLYSGGWVRIQNDEVMPIAKAMAGVNMRLEAGAIRELHWHNTPEWAYILKGTTQITAVDQNGRNYLANVGPGDLWYFPEGMPHSLQGTDANNEGSEFLLIFPDGTFDSSNQFMITDWLAHTPKDVIAKNFGVDISEFDRLPSHDLYIFPGVAPPLDAKAPEDPQGTIPLPYSFEFSKVKPTQYAGGTVKIADTRTFPIAKTISVAEVTVEPGAMRELHWHPTEDEWTFFIEGQARVTIFAGQSNAQTYDYQGGDIAYIPTAWGHYVENSGNTQLRFLEIFNSPLFEDVSLAQWIANTPPAIVKATLQLSDEVINTLNKQKAFVVG", "notes": "glycosylation sites removed"}}, "format_in_all_cases": "biochemical, Ceriporiopsis subvermispora", "key": {"[1]": {"substrate": "O=C(O)C(=O)O", "assay": "Oxalate oxidase kinetics, coupled horse radish peroxidase assay, ALT6 (3-21)", "description": "(§1) The E. coli expression system was based on the published protocol of Escutia et al. Escutia et al., Cloning and sequencing of two Ceriporiopsis subvermispora bicupin oxalate oxidase allelic isoforms: implications for the reaction specificity of oxalate oxidases and decarboxylases. (2005). The coding sequence for the mature OXOX enzyme was inserted in E. coli expression vector pET32 (Invitrogen) to include a 6× histidine tag at the C-terminus. The resulting expression plasmid was transformed into E. coli strain BL21Star pLysS (Invitrogen).\n(§2) E. coli cultures were grown at 37° C. At optical density 0.4, arabinose was added to a concentration or 0.4%. After another hour of growth at 37° C., MnCl2 was added to 5 mM and IPTG to 1 mM. Cultures were then grown at 25° C. for 16 hours. Cells were harvested by centrifugation at 4000 rpm for 10 min. The supernatant was discarded and cell pellets were kept at −80° C. for at least one hour. Pellets were resuspended in total 40 ml of lysis buffer with 50 mM phosphate buffer pH7, 2 mg/ml protease inhibitor (sigma P-8465), 100 mM KCL, 1/1000 lysozyme, 1/2000 endonuclease, and incubated at 37° C. with shaking for one hour, followed by sonication. Cellular debris was removed by centrifugation and the clarified supernatant was poured into a new tube. Nickel resin (Qiagen) was added. After a short period of incubation, the slurry was poured onto a column and washed with buffer. Purified OXOX protein was eluted from the resin in 50 mM succinate pH 5, 100 mM KCl. The E. coli expression procedure was scalable allowing large scale protein production for kinetic analysis as well as small scale production for high throughput screening of libraries.\n(§3) Oxalate oxidase enzymatic activity was determined in a coupled reaction. Oxalate oxidase converts oxalic acid to carbon dioxide and hydrogen peroxide. In the presence of horse radish peroxidase, hydrogen peroxide reacts with 3-methyl-2-benzothiazolinone hydrazone (MBTH) and N,N-dimethylaniline (DMA) to form indamine dye, which can be detected spectrophotmetrically or colorimetrically as described by Laker, M. F., Hoffman, A. F., and Meeuse, J. D. (1980) Clinical Chemistry 26, 827-830. The coupled reaction was used for characterization of oxalate oxidase kinetic properties as well as in a screening procedure to identify oxalate oxidase variants with improved enzymatic properties.\n(§4) DNA shuffling was performed as described elsewhere herein. A polymerase chain reaction product corresponding to the OXOX-C coding sequence was fragmented by limited nuclease treatment. Synthetic oligonucleotides encoding sequence diversity from oxalate decarboxylase sequences found in public databases were added. A polymerase chain reaction procedure was performed on the mixture to yield a library of full length OXOX-C coding sequences with additional diversity incorporated. The resulting library was inserted in expression vector pET32, E. coli cells were transformed and protein was expressed, as described in Example 2. A tiered screening strategy was devised based on the OXOX protein expression and enzymatic activity determination procedures described in Examples 2 and 3, respectively. A high throughput screening process based on colorimetric determination of OXOX activity was utilized to identify individual E. coli strains harboring active OXOX variants. These OXOX-active strains were reassayed using quantitative spectrophotometric determination of OXOX activity. […] Three rounds of this iterative screening and selection procedure were completed, and OXOX variants with up to 8-fold improved activity were identified\n(§5) More modest improvements in Km and Kcat were observed under lower pH conditions. Coupled reaction was preformed as described in Example 3. Enzyme kinetic parameters were determined by standard methods as described in Segel (1976) Biochemical calculations, 2nd Edition. John Wiley & Sons, London, New York, Sydney, Toronto."}, "[2]": {"substrate": "O=C(O)C(=O)O", "assay": "Oxalate oxidase kinetics, coupled horse radish peroxidase assay, ALT7 (3-25)", "description": "as §1, §2, §3, §4, §5"}, "[3]": {"substrate": "O=C(O)C(=O)O", "assay": "Oxalate oxidase kinetics, coupled horse radish peroxidase assay, FG23", "description": "as §1, §2, §3, §4, §5"}, "[4]": {"substrate": "O=C(O)C(=O)O", "assay": "Oxalate oxidase kinetics, coupled horse radish peroxidase assay, FG10", "description": "as §1, §2, §3, §4, §5"}, "[5]": {"substrate": "O=C(O)C(=O)O", "assay": "Oxalate oxidase kinetics, coupled horse radish peroxidase assay, ALT1 (WT-Q7)", "description": "as §1, §2, §3\nThree potential glycosylations sites with the consensus amino acid sequence N—X—(S/T) were identified in OXOX-C at amino acid positions 60, 384 and 430 in SEQ ID NO:27. Site-directed mutagenesis was used to alter these sites (Quickchange, Stratagene). Every possible amino acid substitution was generated at the third amino acid position of each potential glyosylation site. The resulting variants were screened for activity using the enzymatic assay described in Example 3. […] These variants correspond to sequences OXOX-C-MOD1-ALT1 (SEQ ID NO:23) and OXOX-C-MOD1-ALT2 (SEQ ID NO:24).\nas §5"}}, "note": "Changes are numbered by the printed parent chain. In names and notes the source's numbering stands."}
{"protein": "B1", "values": [{"measurement": "Km", "setting": "[1]; other: pH 3.8, pH 3.8", "result": 0.12, "unit": "mM"}, {"measurement": "kcat", "setting": "[1]; other: pH 3.8, pH 3.8", "result": 2.79, "unit": "s⁻¹"}, {"measurement": "Km", "setting": "[1]; other: pH 4.8, pH 4.8", "result": 0.55, "unit": "mM"}, {"measurement": "kcat", "setting": "[1]; other: pH 4.8, pH 4.8", "result": 2.61, "unit": "s⁻¹"}, {"measurement": "Km", "setting": "[1]; other: pH 5.8, pH 5.8", "result": 1.46, "unit": "mM"}, {"measurement": "kcat", "setting": "[1]; other: pH 5.8, pH 5.8", "result": 1.72, "unit": "s⁻¹"}]}
{"protein": "B2", "values": [{"measurement": "Km", "setting": "[2]; other: pH 3.8, pH 3.8", "result": 0.45, "unit": "mM"}, {"measurement": "kcat", "setting": "[2]; other: pH 3.8, pH 3.8", "result": 12.01, "unit": "s⁻¹"}, {"measurement": "Km", "setting": "[2]; other: pH 4.8, pH 4.8", "result": 2.17, "unit": "mM"}, {"measurement": "kcat", "setting": "[2]; other: pH 4.8, pH 4.8", "result": 8.28, "unit": "s⁻¹"}, {"measurement": "Km", "setting": "[2]; other: pH 5.8, pH 5.8", "result": 7.84, "unit": "mM"}, {"measurement": "kcat", "setting": "[2]; other: pH 5.8, pH 5.8", "result": 5.85, "unit": "s⁻¹"}]}
{"protein": "B3", "values": [{"measurement": "Km", "setting": "[3]; other: pH 3.8, pH 3.8", "result": 0.38, "unit": "mM"}, {"measurement": "kcat", "setting": "[3]; other: pH 3.8, pH 3.8", "result": 7.06, "unit": "s⁻¹"}, {"measurement": "Km", "setting": "[3]; other: pH 4.8, pH 4.8", "result": 1.21, "unit": "mM"}, {"measurement": "kcat", "setting": "[3]; other: pH 4.8, pH 4.8", "result": 4.62, "unit": "s⁻¹"}, {"measurement": "Km", "setting": "[3]; other: pH 5.8, pH 5.8", "result": 5.25, "unit": "mM"}, {"measurement": "kcat", "setting": "[3]; other: pH 5.8, pH 5.8", "result": 2.61, "unit": "s⁻¹"}]}
{"protein": "B4", "values": [{"measurement": "Km", "setting": "[4]; other: pH 3.8, pH 3.8", "result": 0.40, "unit": "mM"}, {"measurement": "kcat", "setting": "[4]; other: pH 3.8, pH 3.8", "result": 8.01, "unit": "s⁻¹"}, {"measurement": "Km", "setting": "[4]; other: pH 4.8, pH 4.8", "result": 1.83, "unit": "mM"}, {"measurement": "kcat", "setting": "[4]; other: pH 4.8, pH 4.8", "result": 6.00, "unit": "s⁻¹"}, {"measurement": "Km", "setting": "[4]; other: pH 5.8, pH 5.8", "result": 5.9, "unit": "mM"}, {"measurement": "kcat", "setting": "[4]; other: pH 5.8, pH 5.8", "result": 2.65, "unit": "s⁻¹"}]}
{"protein": "B5", "values": [{"measurement": "Km", "setting": "[5]; other: pH 3.8, pH 3.8", "result": 0.33, "unit": "mM"}, {"measurement": "kcat", "setting": "[5]; other: pH 3.8, pH 3.8", "result": 5.00, "unit": "s⁻¹"}, {"measurement": "Km", "setting": "[5]; other: pH 4.8, pH 4.8", "result": 1.21, "unit": "mM"}, {"measurement": "kcat", "setting": "[5]; other: pH 4.8, pH 4.8", "result": 2.70, "unit": "s⁻¹"}, {"measurement": "Km", "setting": "[5]; other: pH 5.8, pH 5.8", "result": 6.01, "unit": "mM"}, {"measurement": "kcat", "setting": "[5]; other: pH 5.8, pH 5.8", "result": 0.85, "unit": "s⁻¹"}]}
